Data on one substance can be found in article doi:10.1101/585463.

Experiment [1] addresses fully glycosylated CmeA (g2CmeA) (Campylobacter jejuni) (UniProt Q0PBE3). Put plainly: SPR.
Experiment [2] has as its target non-glycosylated CmeA (g0CmeA), periplasmic fusion protein of the CmeABC multidrug efflux pump (Campylobacter jejuni) (UniProt Q0PBE3). Put plainly: SPR.

In experiment [1], “CmeC, outer membrane associated channel of the CmeABC multidrug efflux pump (natural protein)” came in with a Kd of 5 nM, a koff of 0.00075 s⁻¹ and a kon of 150000 M⁻¹ s⁻¹. In experiment [2], this substance registered a Kd of 17 nM, a koff of 0.0009 s⁻¹ and a kon of 50000 M⁻¹ s⁻¹.
